Assay results taken from patent US20210063414A1, “METHODS FOR PREVENTING AND/OR TREATING BONE LOSS CONDITIONS BY MODULATING IRISIN” (Dana-Farber Cancer Institute, Inc., priority 2018, published 2021).

Tests used:
[1] = target: T1, MLO-Y4 cell surface proteins (Mus musculus, UniProt O88689); test: Crosslinking/co-immunoprecipitation/mass spectrometry (TMT quantitative proteomics) to identify irisin receptors; type: binding; settings: TMT ratio, Pcdha4 Protocadherin alpha-4
T1 construct: endogenous in cells; host or cells: MLO-Y4
T1 sequence (O88689 30-947): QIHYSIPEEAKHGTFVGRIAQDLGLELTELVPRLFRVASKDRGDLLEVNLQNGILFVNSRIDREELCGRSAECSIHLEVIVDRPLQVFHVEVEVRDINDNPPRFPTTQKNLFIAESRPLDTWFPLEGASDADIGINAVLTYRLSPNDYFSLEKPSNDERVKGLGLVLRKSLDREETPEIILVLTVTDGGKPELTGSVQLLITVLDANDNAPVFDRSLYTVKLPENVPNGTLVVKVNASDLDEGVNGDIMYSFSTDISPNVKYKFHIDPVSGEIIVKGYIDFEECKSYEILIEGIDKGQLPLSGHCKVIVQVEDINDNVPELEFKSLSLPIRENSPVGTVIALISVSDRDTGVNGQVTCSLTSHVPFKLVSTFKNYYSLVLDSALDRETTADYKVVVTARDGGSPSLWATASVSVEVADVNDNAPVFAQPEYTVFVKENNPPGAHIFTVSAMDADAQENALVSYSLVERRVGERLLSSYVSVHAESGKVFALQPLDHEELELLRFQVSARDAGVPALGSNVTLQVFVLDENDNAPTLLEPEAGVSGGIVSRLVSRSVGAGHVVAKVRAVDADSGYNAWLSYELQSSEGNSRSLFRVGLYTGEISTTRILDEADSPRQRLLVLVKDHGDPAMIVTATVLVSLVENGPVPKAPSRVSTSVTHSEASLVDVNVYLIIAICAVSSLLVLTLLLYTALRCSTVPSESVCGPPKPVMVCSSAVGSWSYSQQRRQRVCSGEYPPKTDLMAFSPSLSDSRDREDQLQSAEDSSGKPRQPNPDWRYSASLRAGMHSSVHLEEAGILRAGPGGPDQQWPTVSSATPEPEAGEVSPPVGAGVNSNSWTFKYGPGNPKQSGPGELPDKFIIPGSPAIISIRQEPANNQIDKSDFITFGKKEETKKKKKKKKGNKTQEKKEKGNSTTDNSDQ
Procedure, shortened: (§1)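 Mouse MLO-Y4 cells were switched to serum-free FreeStyle medium for 4 h, chilled, then exposed to 10 nM His-tagged irisin (or adipsin as control) for 20 min. Cells were crosslinked with 1.5 mM DTSSP (30 min, ice), and bound proteins were pulled down on Ni-NTA and eluted with 250 mM imidazole. Eluates were separated by SDS-PAGE, trypsin-digested in gel, TMT 6-plex labelled and quantified by MS3-based LC-MS/MS on an Orbitrap Fusion Lumos.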

[2] = target: T2, MLO-Y4 cell surface proteins (Mus musculus, UniProt P60843); test: as above; type: binding; settings: co-precipitated protein Eif4a1 (IF4A1_MOUSE)
T2 construct: endogenous in cells; host or cells: MLO-Y4
Procedure, shortened: as §1

T2 sequence (P60843 whole entry): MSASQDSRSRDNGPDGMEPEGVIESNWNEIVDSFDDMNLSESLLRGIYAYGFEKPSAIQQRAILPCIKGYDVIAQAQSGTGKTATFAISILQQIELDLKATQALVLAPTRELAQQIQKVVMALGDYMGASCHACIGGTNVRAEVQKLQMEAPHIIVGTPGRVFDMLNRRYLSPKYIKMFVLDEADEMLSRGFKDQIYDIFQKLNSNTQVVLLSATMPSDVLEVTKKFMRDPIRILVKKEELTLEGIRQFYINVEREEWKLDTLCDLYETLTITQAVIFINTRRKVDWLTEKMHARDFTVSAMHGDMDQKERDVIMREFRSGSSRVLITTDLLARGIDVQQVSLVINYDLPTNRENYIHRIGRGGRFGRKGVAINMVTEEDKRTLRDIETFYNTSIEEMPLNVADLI

B1: irisin: secreted cleaved form of FNDC5; recombinant human/mouse irisin with C-terminal his tag produced in HEK293 cells (protein)
chain: DSPSAPVNVTVRHLKANSAVVSWDVLEDEVVIGFAISQQKKDVRMLRFIQEVNTTTRSCALWDLEEDTEYIVHVQAISIQGQSPASEPVLFKTPREAEKMASKNKDEVTMKE
modifications: left off: small tags and cut ends
notes: secreted cleaved form of FNDC5; recombinant human/mouse irisin with C-terminal his tag produced in HEK293 cells
With B1 the irsin/adipsin [1] was 4.39, the TMT signal-to-noise ratio [2] was 17.0483 and the “irisin/adipsin TMT signal-to-noise ratio” value [2] was 0.125.
